Residue numbers refer to the chain shown, from its start.
B1: ICln: 100 μM PUGNAc plus 5 mM glucosamine (protein)
parent chain: MSFLKSFPPPGPAEGLLRQQPDTEAVLNGKGLGTGTLYIAESRLSWLDGSGLGFSLEYPTISLHALSRDRSDCLGEHLYVMVNAKFEEESKEPVADEEEEDSDDDVEPITEFRFVPSDKSALEAMFTAMCECQALHPDPEDEDSDDYDGEEYDVEAHEQGQGDIPTFYTYEEGLSHLTAEGQATLERLEGMLSQSVSSQYNMAGVRTEDSIRDYEDGMEVDTTPTVAGQFEDADVDH
B2: ECFP-ICln Ser67Ala (natural protein, UniProt P54105 1-237, looked up)
chain: B1 parent chain with S67A
notes: ICln with Ser67Ala, made by site-directed mutagenesis of the vector with the wild-type ICln cDNA; also called Ser67Ala ICln; source: NIH/3T3, transfected for 48 h, in fixed cells; not shown: ECFP, N-terminal, kept

What was measured:
[1] = patch clamp, IClswell in wild-type ICln-transfected cells; details: control: vehicle (0.1% DMSO plus 5 mM D-glucose)
[2] = target: T1, integrin αIIbshort-EYFP (amino acids 987-1039 of the human integrin αIIb chain fused to EYFP) (human, UniProt P08514-1 987-1039); assay: FRET or BRET; acceptor photobleaching FRET in fixed NIH/3T3 cells transfected for 48 h; donor ECFP-ICln, acceptor αIIbshort-EYFP; FRET efficiency in three-four plasma membrane ROIs of each cell; O-GlcNAcylation left unmodified, increased with 100 μM PUGNAc plus 5 mM glucosamine for 1 h, or reduced by co-transfection of OGA-L; details: partners not purified
T1 construct: human integrin αIIb chain, amino acids 987-1039 of NP_000410.2 (integrin αIIbshort); also called αIIbs-EYFP; αIIb integrin; source: NIH/3T3, transfected for 48 h, in fixed cells; not shown: EYFP, C-terminal, kept
T1 sequence (P08514 987-1039): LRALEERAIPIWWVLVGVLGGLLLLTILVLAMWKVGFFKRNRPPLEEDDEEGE

Binder | other: channel current, other: % variation of current at +100 mV [1] | FRET efficiency relative to wild-type ICln [2] [fold]
B1 | decreases | –
B2 | – | ~3

Source: PMC7717961, “O-GlcNAcylation Suppresses the Ion Current IClswell by Preventing the Binding of the Protein ICln to α-Integrin” (Frontiers in Cell and Developmental Biology, 2020)
